Source: the DeepSol protein solubility set

Assay: soluble on expression in E. coli; label from the status in PepcDB or PDB records

| Sequence | soluble on expression in E. coli |
| --- | --- |
| MIIRIKHYGEVKIEDSKNLLLNLIENRIGIDNICNGKGTCGKCKVRFRQGVPEATSADLRYLSVEELEEGVRLACQVKPQKGMEIDVTLSNSFDRKNTVLEHHHHHH | not soluble |
| MEMEHINENTIRVLIGNEDLADRGITFLDLLGNHKDVENFFYSILEEVDVEDEFQGSEAVTFQVLPKNDGLELFISKNVAMDDLSSLEGLSEVNADVSELIRKQIEADKAAADELDEMEATDETNRNVIFELDNFEAMIQLSKEVFMQSVLTNLYTYNDRYYLQVLFLTDELEKTNVDNEIAQILEFAHKTTVTQDTLVEYGTCIMERSALELTRYYFND | not soluble |
| MGSDKIHHHHHHMIGYGLPMPNQAHFSASFARPSTPAAKCMHHIRLGQQLIRNELVEATGLSQPTVTRAVTALMQAGLVRERPDLTLSSGPGRPNIPLELAPSPWIHAGVAIGTKSSYVALFDTKGRTLRDAMLEISAADLDPDTFIEHLIAGVNRLTTGLDLPLVGIGVATSGKVTNAGVVTASNLGWDGVDIAGRLNYQFSVPATVASAIPAIAASELQASPLPHPEQPTPITLTFYADDSVGAAYSNDLGVHVIGPLATTRGSGLDTLGMAAEDALSTQGFLSRVSDQGIFANSLGELVTIAKDNETAREFLNDRATLLAHTAAEAAETVKPSTLVLSGSAFSEDPQGRSVFASQLKKEYDADIELRLIPTHRENVRAAARAVALDRLLNEPLTLVP | not soluble |
| MRWAIVRFPGANCDEDARFALEKAGIRAEFVWHTERDLRGFDGVFLPGGFSYGDYLRAGALAAKSPVMEAVRRFAEEGRYVVGVCNGFQILTEAGLLPGALLANLNLHFTCKEVGVRVERNDLPFTRLYPRGQVLRLPIAHGEGRYYADPETLARLEGEGLVVFRYAPLKDEADYNPNGSLHDIAGIVSEKGNVLGMMPHPERAVDEVLGNTDGLPFFLGLVKEVAR | soluble |
| MTNEEPKSPEKVERRRSTQEDSEKDKKRSRDDRKTEKRTHDRDRKRNRSRSRSRSRSPKRSRRDKKEEKQEQEEEDGEIRDTTPPAPEKPRQLTARELERQRIIEEELKSGKHDEHDDDPVWSMKKAQAEKKSRMCPYLDTIDRSVLDFDFEKQCSVSLSHQNVYACMVCGKYFQGRGTNTHAYTHALETDHHVFLNLQTLKFYCLPDNYEVIDPSLEDIKYVLKPTYTKEMIASIDKQSKMVRAYDDSTYFPGVVGLNNIKANDYCNAILQALSAVRPLRNWFLKESNYTSIKRPPGDKLTLLPQRFGELIRKLWNPRALRTHVSPHEMLQAVVVCSNKKFQFIKQNDAADFMLFLLTTLHSALNGTDKKPSIISKTFRGRMRQYSRRVIPAEDTDEEKYMKLRMPEYQEKVIESPFLYLTLDLPSAPLYRDVQLQNIIPQVPLSTLLEKFDGKTEKEYPTYNDNNIMKRFELLQLPDFLIITYKRFQKNQWFVEKNPTIVNFPIANVDFYDCLAKDARANHKYTTYDLVANVVHEGTFKDGNYRIQIVHEGSGKWFELEDLHVKDLLPQMIVLAESYIQIWRLNKEQTRDERAEGEPMQN | not soluble |
| MAAHELKEALETLKETGVRITPQRHAILEYLVNSMAHPTADDIYKALEGKFPNMSVATVYNNLRVFRESGLVKELTYGDASSRFDFVTSDHYHAICENCGKIVDFHYPGLDEVEQLAAHVTGFKVSHHRLEIYGVCQECSKKENH | soluble |
| MRLIPLGAAALAGALALAPAARAEMSAAEREAVRAEVRAYLLENPEVLMEAFTALEQRQQLDQVNADLARLQDHSSEIYTDPASWAGGNLQGDITVVEFIDYRCGYCRKANAEVEELVASDGNIRFVLKEYPILGEESVLASRFAISVLQIAGPEPYKAVHDKLITFRGDITTEALGRLADEMKLDRAAILAHMDKDEVTAVIAANHKLAETLEISGTPTFVVDRTMVRGYVPLDGMRQIVEGQRKG | not soluble |
| MSLASIRDIARQAEVSPGTVSRVLNNDPTLSVAKETRTRIHQIAQALQYEKVTRKNKRIQIITYASREKEMSDPYYREIRLAIEAEVKRLNLSLKRTIRIDGQQDHIDLNKIENAGAIIVIGNFSVDALNKLKTHNANMVVINNPNTPKSIDAVYSDLDDAMTELLNRILDKGLTKIAYIGGHHTIRELNGITTTNAADVRYQAYQSWCEKHDVEEIVLLNGWGKTQGEDAVKVYLESDHAFPQVFIAGNDMIAIGILQQLQLNKKAIPEEVKLISFNDLEVIQYAVPSISSVHIPVDEFGRTAVRMAEERINNTRQIAIHVVVEAQLKARNTFKVEGHHHHHH | soluble |
| MSLKKMMDSTTVIITTTDNRVLLQKRDENPDIEYSGYYSLVSGYLEEEETPLDGIIRELKEEFEHKKSQKVHFSSITYLGSEYRADYDRWEYIHHTYLMDDAADIRILEGESFVLLDMDECLRLENLAPHHKLFLLKYRAGLCKIDVREQSKKMFDEITVRDLIKVESVGDVKNYSLLEAGTGFVIGEDTTLSASIPAVEAAKYIGFLQFVPKVLRGNHYHFRKVEYMLILQGRMHATFQKYDDSEAVIEEIWEKGDLVRTLPGCVHTLTALGESNVLTIEFSPQPYVARDVLMNDKEGHHHHHH | soluble |
| MSLNKTNYNNIISINQQREFVLFQNIQKECPLLVVFDLDDTLIHTHINTNNLCINSSDIFTIRVNEIKYYCEVRKGVVETLERLSKQFRIMIYTASKKEYADQVVSHLEKNCKLFSKILYREDCLEEEGFIYKTIHNINYNVKRIICIDDNPSAWKKLENVYVCKKYNGGIDDEMIDIEKTFIKCCILCFLFVEGHHHHHH | soluble |
| MGSDKIHHHHHHMLQTTNKPPLTIRLCQPRGFCAGVDRAIQIVVLALKKYGAPVYVRHEIVHNRYVVEGLQSLGAVFIEELSEIPAEHRRSPVVFSAHGVPKSVPADAQARNLFYLDATCPLVSKVHKQAMRHQRLGRHVLLIGHAGHPEVIGTMGQLPEGAVTLVETEADAARLVPADPKALGFVTQTTLSVEDTAGIIRALRERFPDLQAPAAESICYATTNRQEAVKDTAPGADLYLIVGAPNSSNSRRLVEVAERAGATMSLLVQRAAEIPWNDIGTISTLGLSAGASAPEIIVDEIIDAFRQRFDVTIDLAITATETEDFPVMRVLRDVELTPADMAFVNGAA | not soluble |
| MSNDHLETTGSSDPNTNLLKYLPIVLNPDRTITRPIQIPSTAASPDPTSSSPVLTKDLALNPLHNTFVRLFLPRHALYNSAKLPLVVYFHGGGFILFSAASTIFHDFCCEMAVHAGVVIASVDYRLAPEHRLPAAYDDAMEALQWIKDSRDEWLTNFADFSNCFIMGESAGGNIAYHAGLRAAAVADELLPLKIKGLVLDEPGFGGSKRTGSELRLANDSRLPTFVLDLIWELSLPMGADRDHEYCNPTAESEPLYSFDKIRSLGWRVMVVGCHGDPMIDRQMELAERLEKKGVDVVAQFDVGGYHAVKLEDPEKAKQFFVILKKFVVDSCTTKLKLN | soluble |
| GPGSMSALWARFTEKLKGSGYTLSDLVYCSEDTFLTLVANMNAFTPLQIASLAKEWQRSLSAAATPTATVSGSALPISRRHAESTRLSSSPVRSSALNRATLPATGAAETPPNHSTLSTALRKNSFVPPRRSPAKVKEEAEYLLTKLGAQSGAEYQVSLTEGIVAVEASPEAWGPLLDRVSRMHVTSHRDSAAAATPLATELQLLWKLCSPATLRKMEKACVSGAPFGLSNQDDADGLCSSAVVLYGKDATRLAAPAEELEQLFREGWGLVAFDVAVGKARTVTKEEAQDLNANLYRFSMEQCLEMLEEAGFDAFHIPSRNAVAVCHMHQLMPRFVVFVSTLEPVVVTRRLGDAVPAVGNGRPSRAPPAPAASPSPSAVAAAAAALPAARRSINGGDDVLVPASRSSRNSEDLQCAVHSKKTVEFWSPTEKRLLCSHCLYYDGYSQENCIPIEQAAREEAPRLERWVQNAITFSQEIKSVFDLFEAAQTDVSQTHKQVRSDIAHSFTRLRARLDALEANLQQQCQQKAQQNLQVLQDTLSRITATVQFVSEVVQDADEPVAAYRGGVADTNTCVALLRSAQRAFGAWEPVTISAYEDVRIVDGSALLQPVEEALKAVQSISSEAGKVQLPEAIDVNYLKSDCDV | not soluble |
| MSVHPAVQSLCEQPIDTIGLTAVSAVASALGDVSTATDLIQRPEQEKALHDLLKKCMSILNNSGKNSALRLACLECLYVLSQPPIPAFRTGLLCNTLNSVNSSVEEMLARTGPSEAESSSSAREMFTVLVFRFTNYDTKVARLLLQHMCDGDVGTMMQTLLRVMVQHCETCEWPLLQAALQSLYELTVPTTYYATGKDGAAEPSFDSAATATGSSLQSFTVESFQDRIAVLLTEMRNHRLLEKLLASLRLSWHESTHNRSPPSLAQGCAESVALGALGCPDVAHTVTSASAEQQMELLNWLSAFTLLCRALDNMVEFCRDAKLAREVRARLLSDPSCHDWLASAAVPAVIAAIQVWMSDDGASATPAAISDGSAGPFATAKVKLSLLTAAVTLLRLLRFALYKPAMGFTAALLSSMGCLAAQVQRGEPHLRLQYGGMQVMLLTVECLVNMNAVAVTSPVNLSESYRGLLRTIAADKTRCTLSNCSSDVSSDHGAVAERQPDALMPVAEWFILCVREEESPFCDIDSGNASVALLHECFASEEARLQDAADRVADLAALESQLAMMQNFLLLMTLTELLSGLPDGGLERLTQPGPRRRNSATDAEQKPPNNSDSSSRRCKLSKKKVSHHPAAYVCDLTGKLMREPVVLKGGHRFEFDALQNVILQVGHVDPISGESIDEDVEVNIPLQQEIAAYRVKRASEKGGS | not soluble |
| MSLSKSRKIDVHAHVLPKNIPDFQEKFGYPGFVRLDHKEDGTTHMVKDGKLFRVVEPNCFDTETRIADMNRANVNVQCLSTVPVMFSYWAKPADTEIVARFVNDDLLAECQKFPDRLVPLGTLPMNDVQRAVEEVKRCVSMGIKGFEVGSHVAEKSLDHRDFWPLYKICEELSVVLFVHPWDMHMWDGRLDKYWMPWLVGMPSETAQAICSVLMGNILVLFPKLKLCFAHGGGAYPQIRGRVSHGWNVRPDLCAGKCKVAPNKLDGLLWTDSLVHDPKALELLINTVGKEHIVLGTDYPFPLGELEVGRVVEEYKPFSAKDREDLLWKNAVKMLDIDENLLFNKDFEGHHHHHH | not soluble |
| MAHHHHHHMIERTDVVTGTETQEGSTVPQEARQFLQIIATMQSESEERARIIGELRYRKLLVEEERDKNFMEREAVVAKLADARAQLLQLDVEHRELQKRQRSSESEILENSRQSQRCRTLLSTCRGDLTVHPMVPNSASELAAEATAAGTSSAAHNAYTEEAKWLKHLFITYGQLYNGTDFLQELRVSMKNLYVEVSKETHNTVQRNLSDWEATCLQSLPHLTADERTLLHFQLMLHPFV | not soluble |
| MGHHHHHHSHMCSWASYMTNSPTLIVMIGLPARGKTYVSKKLTRYLNWIGVPTKVFNLGVYRREAVKSYKSYDFFRHDNEEAMKIRKQCALVALEDVKAYLTEENGQIAVFDATNTTRERRDMILNFAEQNSFKVFFVESVCDDPDVIAANILEVKVSSPDYPERNRENVMEDFLKRIECYKVTYRPLDPDNYDKDLSFIKVINVGQRFLVNRVQDYIQSKIVYYLMNIHVQPRTIYLCRHGESEFN | soluble |
| MEKATKRNDEECEVQLNIKRNSKHSAWTGELFKIECPVKYCVHRPNVTWCKHNGTIWVPLEVGPQLYTSWEENRSVPVFVLHFKPIHLSDNGSYSCSTNFNSQVINSHSVTIHVRERSQNSS | soluble |
| MAVSNIWQSYSSSNLHWIYPLYTNNCSQNVKSSFTAEILLKRRCNDIQDILNDRMIELLLQGACDPNKQQNYLQGMSPSRKKKTHVKKFLKKQKKSRKPITLEHGCLSGPVTLRFGNFAGIRDLRGTRCPLHGIKHGVHPKPGERCACQQATLFPSPLARFSCDQSAVLGCAASSTRVYDSIADEFSSLYF | not soluble |
